In IntAct's records for PubMed 32073997:

B1: AKT-interacting protein (Homo sapiens), Q9H8T0 (parent)
chain: MNPFWSMSTSSVRKRSEGEEKTLTGDVKTSPPRTAPKKQLPSIPKNALPITKPTSPAPAAQSTNGTHASYGPFYLEYSLLAEFTLVVKQKLPGVYVQPSYRSALMWFGVIFIRHGLYQDGVFKFTVYIPDNYPDGDCPRLVFDIPVFHPLVDPTSGELDVKRAFAKWRRNHNHIWQVLMYARRVFYKIDTASPLNPEAAVLYEKDIQLFKSKVVDSVKVCTARLFDQPKIEDPYAISFSPWNPSVHDEAREKMLTQKKPEEQHNKSVHVAGLSWVKPGSVQPFSKEEKTVAT
partner: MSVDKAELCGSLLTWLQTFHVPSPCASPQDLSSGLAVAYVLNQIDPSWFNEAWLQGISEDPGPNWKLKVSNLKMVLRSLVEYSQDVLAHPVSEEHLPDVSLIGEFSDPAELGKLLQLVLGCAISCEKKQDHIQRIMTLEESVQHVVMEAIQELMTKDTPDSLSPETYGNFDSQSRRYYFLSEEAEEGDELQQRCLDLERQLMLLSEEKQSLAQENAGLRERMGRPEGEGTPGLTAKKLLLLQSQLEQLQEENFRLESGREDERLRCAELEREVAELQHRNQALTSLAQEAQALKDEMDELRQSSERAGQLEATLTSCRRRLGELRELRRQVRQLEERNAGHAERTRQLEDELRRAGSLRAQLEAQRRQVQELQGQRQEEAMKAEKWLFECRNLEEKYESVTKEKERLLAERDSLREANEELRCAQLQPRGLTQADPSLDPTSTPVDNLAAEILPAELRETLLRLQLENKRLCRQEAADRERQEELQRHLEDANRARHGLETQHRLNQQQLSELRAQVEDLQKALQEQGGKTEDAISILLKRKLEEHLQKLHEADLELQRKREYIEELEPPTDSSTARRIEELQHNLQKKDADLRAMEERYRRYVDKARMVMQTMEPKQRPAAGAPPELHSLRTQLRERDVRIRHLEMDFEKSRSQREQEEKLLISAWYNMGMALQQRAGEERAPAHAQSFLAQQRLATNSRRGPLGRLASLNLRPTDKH
B2: AKT-interacting protein (Homo sapiens), Q9H8T0 (parent)
chain: B1 chain
partner: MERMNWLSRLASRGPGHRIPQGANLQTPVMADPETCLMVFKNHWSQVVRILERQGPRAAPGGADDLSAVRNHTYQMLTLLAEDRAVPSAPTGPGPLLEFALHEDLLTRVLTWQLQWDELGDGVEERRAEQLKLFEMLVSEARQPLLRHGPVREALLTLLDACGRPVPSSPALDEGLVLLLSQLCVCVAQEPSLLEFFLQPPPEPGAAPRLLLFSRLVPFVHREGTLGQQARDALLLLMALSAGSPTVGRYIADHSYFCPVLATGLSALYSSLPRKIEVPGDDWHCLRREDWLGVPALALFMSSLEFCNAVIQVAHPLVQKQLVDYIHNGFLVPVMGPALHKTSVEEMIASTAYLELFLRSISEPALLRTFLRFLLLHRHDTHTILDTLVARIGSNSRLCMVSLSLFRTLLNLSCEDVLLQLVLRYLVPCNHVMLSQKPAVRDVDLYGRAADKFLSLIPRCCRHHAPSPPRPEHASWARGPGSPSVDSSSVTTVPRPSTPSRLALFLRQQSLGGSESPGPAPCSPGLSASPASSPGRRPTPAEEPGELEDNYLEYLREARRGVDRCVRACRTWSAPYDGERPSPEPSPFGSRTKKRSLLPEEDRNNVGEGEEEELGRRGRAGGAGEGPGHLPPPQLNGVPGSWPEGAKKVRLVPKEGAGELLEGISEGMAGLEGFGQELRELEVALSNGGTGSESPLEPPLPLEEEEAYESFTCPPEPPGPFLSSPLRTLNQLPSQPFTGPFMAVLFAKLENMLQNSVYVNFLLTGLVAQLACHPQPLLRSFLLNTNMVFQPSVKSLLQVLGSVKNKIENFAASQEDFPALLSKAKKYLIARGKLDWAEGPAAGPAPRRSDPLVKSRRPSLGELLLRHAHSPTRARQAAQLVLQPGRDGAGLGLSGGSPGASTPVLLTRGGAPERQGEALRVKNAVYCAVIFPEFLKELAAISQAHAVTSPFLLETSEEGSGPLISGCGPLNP
B3: AKT-interacting protein (Homo sapiens), Q9H8T0 (parent)
chain: B1 chain
partner: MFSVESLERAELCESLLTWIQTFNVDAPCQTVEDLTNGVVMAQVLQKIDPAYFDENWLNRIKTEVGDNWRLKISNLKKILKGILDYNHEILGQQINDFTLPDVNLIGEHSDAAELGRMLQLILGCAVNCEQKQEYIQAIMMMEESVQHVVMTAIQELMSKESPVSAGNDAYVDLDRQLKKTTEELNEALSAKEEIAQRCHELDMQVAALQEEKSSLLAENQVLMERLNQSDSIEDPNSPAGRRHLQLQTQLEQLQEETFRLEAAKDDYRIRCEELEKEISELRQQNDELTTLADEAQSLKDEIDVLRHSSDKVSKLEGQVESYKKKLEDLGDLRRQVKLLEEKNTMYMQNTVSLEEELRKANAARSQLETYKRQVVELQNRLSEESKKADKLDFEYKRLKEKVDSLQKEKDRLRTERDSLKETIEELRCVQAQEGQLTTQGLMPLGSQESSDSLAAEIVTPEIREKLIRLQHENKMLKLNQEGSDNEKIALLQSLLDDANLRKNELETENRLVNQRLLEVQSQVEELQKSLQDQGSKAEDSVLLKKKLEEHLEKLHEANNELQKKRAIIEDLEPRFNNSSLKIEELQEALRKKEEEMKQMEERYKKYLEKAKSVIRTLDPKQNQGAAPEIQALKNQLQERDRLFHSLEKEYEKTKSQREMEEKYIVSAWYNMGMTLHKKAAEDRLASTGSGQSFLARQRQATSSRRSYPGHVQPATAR

Variants of: B1
Conditions: with hook2_human HOOK2, Q96ED9

Row | effect of a mutation on the interaction | Variant
1 | disrupting interaction strength | MNPFWSMSTSSVRKRSEGEEKTLTGDVKTSPPRTAPKKQLPSIPKNALPITKPTSPAPAAQSTNGTHASYGPFYLEYSLLAEFTLVVKQKLPGVYVQPSYRSALMAAGVIFIRHGLYQDGVFKFTVYIPDNYPDGDCPRLVFDIPVFHPLVDPTSGELDVKRAFAKWRRNHNHIWQVLMYARRVFYKIDTASPLNPEAAVLYEKDIQLFKSKVVDSVKVCTARLFDQPKIEDPYAISFSPWNPSVHDEAREKMLTQKKPEEQHNKSVHVAGLSWVKPGSVQPFSKEEKTVAT [W106A;F107A]

Variants of: B2
Conditions: with FHIP1B

Row | effect of a mutation on the interaction | Variant
2 | disrupting interaction strength | MNPFWSMSTSSVRKRSEGEEKTLTGDVKTSPPRTAPKKQLPSIPKNALPITKPTSPAPAAQSTNGTHASYGPFYLEYSLLAEFTLVVKQKLPGVYVQPSYRSALMAAGVIFIRHGLYQDGVFKFTVYIPDNYPDGDCPRLVFDIPVFHPLVDPTSGELDVKRAFAKWRRNHNHIWQVLMYARRVFYKIDTASPLNPEAAVLYEKDIQLFKSKVVDSVKVCTARLFDQPKIEDPYAISFSPWNPSVHDEAREKMLTQKKPEEQHNKSVHVAGLSWVKPGSVQPFSKEEKTVAT [W106A;F107A]

Variants of: B3
Conditions: with hook3_human HOOK3, Q86VS8

Row | effect of a mutation on the interaction | Variant
3 | decreasing interaction strength | MNPFWSMSTSSVRKRSEGEEKTLTGDVKTSPPRTAPKKQLPSIPKNALPITKPTSPAPAAQSTNGTHASYGPFYLEYSLLAEFTLVVKQKLPGVYVQPSYRSALMAAGVIFIRHGLYQDGVFKFTVYIPDNYPDGDCPRLVFDIPVFHPLVDPTSGELDVKRAFAKWRRNHNHIWQVLMYARRVFYKIDTASPLNPEAAVLYEKDIQLFKSKVVDSVKVCTARLFDQPKIEDPYAISFSPWNPSVHDEAREKMLTQKKPEEQHNKSVHVAGLSWVKPGSVQPFSKEEKTVAT [W106A;F107A]
